# Where a chain is given by its changes, count along the chain named.
# B1: anti-CD116 antibody 116-408, Fab (Fab, V domains shown)
# VH: EVQLVQSGAEVKKPGASVKVSCKVSGYTLTDLSMHWVRQAPGKGLEWMGGFDPEDGERIYAQKFQGRVTMTEDTSTDTAYMELSSLRSEDTAVYYCATGLFYYYYGMDVWGQGTMVTVSS
# VL: not shown
# What was measured:
# Assay in all cases: flow cytometry, Fab 0.25 µg/mL on HEK-293T cells expressing the mutant
# human CD116 T187A = target: T1, human CD116 T187A (human, UniProt P15509 23-400)
# T1 construct: whole, on cells
# T1 sequence (looked up): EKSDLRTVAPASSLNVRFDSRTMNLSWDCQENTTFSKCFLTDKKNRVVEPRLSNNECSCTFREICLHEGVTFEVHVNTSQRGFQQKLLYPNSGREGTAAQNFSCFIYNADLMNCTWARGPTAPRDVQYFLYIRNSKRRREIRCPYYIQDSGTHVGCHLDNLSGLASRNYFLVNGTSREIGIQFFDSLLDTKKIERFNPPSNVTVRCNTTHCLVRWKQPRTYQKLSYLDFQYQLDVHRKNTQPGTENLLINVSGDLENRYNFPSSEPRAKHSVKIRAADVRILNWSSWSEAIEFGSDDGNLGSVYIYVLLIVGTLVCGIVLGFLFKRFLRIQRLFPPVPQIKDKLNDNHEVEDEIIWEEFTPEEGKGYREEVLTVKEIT
# human CD116 R302A = target: T2, human CD116 R302A (human, UniProt P15509 23-400)
# T2 construct: whole, on cells
# T2 sequence (looked up): T1 sequence (looked up) with A165T, R280A
# human CD116 F251A = target: T3, human CD116 F251A (human, UniProt P15509 23-400)
# T3 construct: whole, on cells
# T3 sequence (looked up): T1 sequence (looked up) with A165T, F229A
# human CD116 Y248A = target: T4, human CD116 Y248A (human, UniProt P15509 23-400)
# T4 construct: whole, on cells
# T4 sequence (looked up): T1 sequence (looked up) with A165T, Y226A
# human CD116 D250A = target: T5, human CD116 D250A (human, UniProt P15509 23-400)
# T5 construct: whole, on cells
# T5 sequence (looked up): T1 sequence (looked up) with A165T, D228A
# human CD116 L249A = target: T6, human CD116 L249A (human, UniProt P15509 23-400)
# T6 construct: whole, on cells
# T6 sequence (looked up): T1 sequence (looked up) with A165T, L227A
binder,measurement,setting,value
B1,Binding Reactivity (% WT),human CD116 T187A,16.2 % WT
same,Binding Reactivity (% WT),human CD116 R302A,93.8 % WT
same,Binding Reactivity (% WT),human CD116 F251A,99.3 % WT
same,Binding Reactivity (% WT),human CD116 Y248A,78.2 % WT
same,Binding Reactivity (% WT),human CD116 D250A,95.8 % WT
same,Binding Reactivity (% WT),human CD116 L249A,92.4 % WT

# Reference: patent publication US20250092148A1 (Kyowa Kirin, published 2025)
